{"source": "patent US20180128830A1", "about": "“DETECTION OF HUMAN CYTOMEGALOVIRUS IN BREAST CANCER” (priority 2015, published 2018)", "key": {"PAI-1": {"system": "PAI-1", "assay": "PAI-1 ELISA on culture supernatants", "assay_type": "cell-based, human", "details": "10 ng/ml", "experimental": "DuoSet ELISA kits (R&D Systems) were used to quantify uPAR, PAI-1, and MMP-3. For uPAR and PAI-1 measurement, MDA cells were seeded in triplicate in 96-well plate at 5.0×10^4 cell/mL density with complete L-15 media and treated with 10 ng/mL of either cmvIL-10 or hIL-10 for the indicated times and supernatants were collected daily. The ELISA was carried out on supernatants according to manufacturer's instructions using and following the addition of substrate and stop solution, absorbance of the plate was measured at 450 nm using a Dynex Opsys MR microplate reader. Sample concentrations were interpolated from a standard curve using linear regression analysis. For cell-associated MMP-3, MDA cells were seeded in 96-well plates and treated with cmvIL-10 as above. Cells were treated with cell lysis buffer (150 mM NaCl, 20 mM HEPES, 0.5% Triton-X-100, 1.0 mM NaOV4, 1.0 mM EDTA, 0.1% NaN3) supplemented with 1× protease inhibitors (Calbiochem, EMD Chemicals, San Diego Calif.) and were collected daily for the indicated time points. The lysates were evaluated for MMP-3 according to the manufacturer's instructions (R&D Systems)."}, "MDA-MB-231 cells [1]": {"system": "MDA-MB-231 cells", "assay": "Migration assay toward EGF (modified Boyden chamber)", "assay_type": "cell-based, human", "details": "5 hrs", "experimental": "Cells were harvested and resuspended at a density of 2×10^6 cells per ml in complete medium. A total volume of 0.1 ml cell suspension (2×10^5 cells) was placed in the upper chamber of a ThinCert filter with 8 μm pores in a 24-well plate (Greiner Bio-One North America, Monroe, Calif.). […] Medium from the lower chamber was collected, used to rinse the bottom of the filter twice, and then centrifuged at 1000 rpm for 10 min. The cell pellet was resuspended in 0.1 ml media and transferred to a white 96-well plate. Viable cell number was quantified using the Cell Titer Glo Assay kit according to the manufacturer's protocol."}, "MDA-MB-231 cells [2]": {"system": "MDA-MB-231 cells", "assay": "Transcriptional profiling, Human Tumor Metastasis RT2 Profiler PCR Array", "assay_type": "cell-based", "details": "100 ng/mL, 5 hrs", "experimental": "RNA was harvested from 10×10^6 MDA-MB-231 cells that were mock treated or treated with 100 ng/mL cmvIL-10 or hIL-10 for 5 hrs using the RNeasy Midi Kit and RNAse-Free DNase set (Qiagen, Valencia, Calif.). From the isolated RNA, cDNA was prepared using the RT^2 First Strand Kit (SA Biosciences, Frederick, Md.) and subsequently loaded into a 96-well breast cancer metastasis profiler PCR array (PAHS-028ZD) with system RT^2 SYBR Green Mastermix (SA Biosciences). The plates were run using the CFX96 Real-Time system cycler (BioRad, Hercules, Calif.) with the following amplification program: 95° C. for 10 min, 95° C. for […] with a slow ramp rate for 1.0 c/sec and 60° C. for 1 min. The data from three biological replicates for each treatment was analyzed by the ΔΔCT method according to manufacturer's instructions using the RT^2 profiler PCR array data analysis program located on the SABiosciences web portal and is reported as fold change relative to control."}}, "note": "Values joined by “and” are separate entries in the source; they are usually repeats but may differ in a detail not shown here. Equal values may be shown once."}
{"molecule": "cmvIL-10 (protein) ATTTTIKNTKPQCRPEDYATRLQDLRVTFHRVKPTLQREDDYSVWLDGTVVKGCWGCSVMDWLLRRYLEIVFPAGDHVYPGLKTELHSMRSTLESIYKDMRQCPLLGCGDKSVISRLSQEAERKSDNGTRKGLSELDTLFSRLEEYLHSRK", "values": [{"measurement": "PAI-1 protein secreted", "setting": "PAI-1; 12 hours", "result": "significantly increased"}, {"measurement": "PAI-1 production", "setting": "PAI-1; after 24 hours, maintained over 72 hours", "result": "significant increase in PAI-1 production"}, {"measurement": "migration response toward EGF with cytokine in lower chamber", "setting": "MDA-MB-231 cells [1]; 100 ng/ml cytokine plus EGF", "result": "significantly increased"}, {"measurement": "cell movement toward cytokine alone", "setting": "MDA-MB-231 cells [1]; no EGF", "result": "did not stimulate cell movement"}, {"measurement": "Fold Change vs. Mock, ACTB", "setting": "MDA-MB-231 cells [2]; ACTB mRNA", "result": 1.0986, "unit": "fold"}, {"measurement": "Fold Change vs. Mock, APC", "setting": "MDA-MB-231 cells [2]; APC mRNA", "result": 0.9681, "unit": "fold"}, {"measurement": "Fold Change vs. Mock, B2M", "setting": "MDA-MB-231 cells [2]; B2M mRNA", "result": 0.9597, "unit": "fold"}, {"measurement": "Fold Change vs. Mock, BRMS1", "setting": "MDA-MB-231 cells [2]; BRMS1 mRNA", "result": 0.8029, "unit": "fold"}, {"measurement": "Fold Change vs. Mock, CCL7", "setting": "MDA-MB-231 cells [2]; CCL7 mRNA", "result": 0.8113, "unit": "fold"}, {"measurement": "Fold Change vs. Mock, CD44", "setting": "MDA-MB-231 cells [2]; CD44 mRNA", "result": 1.1473, "unit": "fold"}, {"measurement": "Fold Change vs. Mock, CD82", "setting": "MDA-MB-231 cells [2]; CD82 mRNA", "result": 0.6917, "unit": "fold"}, {"measurement": "Fold Change vs. Mock, CDH1", "setting": "MDA-MB-231 cells [2]; CDH1 mRNA", "result": 0.6288, "unit": "fold"}, {"measurement": "CDH6 fold change expressed as negative fold (down-regulation)", "setting": "MDA-MB-231 cells [2]; CDH6 mRNA", "result": "−1.23", "unit": "fold"}, {"measurement": "Fold Change vs. Mock, CDH6", "setting": "MDA-MB-231 cells [2]; CDH6 mRNA", "result": "0.811 fold and 0.8113 fold"}, {"measurement": "Fold Change vs. Mock, CDH11", "setting": "MDA-MB-231 cells [2]; CDH11 mRNA", "result": 0.9033, "unit": "fold"}, {"measurement": "Fold Change vs. Mock, CDKN2A", "setting": "MDA-MB-231 cells [2]; CDKN2A mRNA", "result": 0.8113, "unit": "fold"}, {"measurement": "Fold Change vs. Mock, CHD4", "setting": "MDA-MB-231 cells [2]; CHD4 mRNA", "result": 0.8970, "unit": "fold"}, {"measurement": "Fold Change vs. Mock, COL4A2", "setting": "MDA-MB-231 cells [2]; COL4A2 mRNA", "result": 1.0929, "unit": "fold"}, {"measurement": "Fold Change vs. Mock, CST7", "setting": "MDA-MB-231 cells [2]; CST7 mRNA", "result": 0.7149, "unit": "fold"}, {"measurement": "Fold Change vs. Mock, CTBP1", "setting": "MDA-MB-231 cells [2]; CTBP1 mRNA", "result": 0.6245, "unit": "fold"}, {"measurement": "Fold Change vs. Mock, CTNNA1", "setting": "MDA-MB-231 cells [2]; CTNNA1 mRNA", "result": 0.8816, "unit": "fold"}, {"measurement": "Fold Change vs. Mock, CTSK", "setting": "MDA-MB-231 cells [2]; CTSK mRNA", "result": 0.8043, "unit": "fold"}, {"measurement": "Fold Change vs. Mock, CTSL1", "setting": "MDA-MB-231 cells [2]; CTSL1 mRNA", "result": 0.8212, "unit": "fold"}, {"measurement": "Fold Change vs. Mock, CXCL12", "setting": "MDA-MB-231 cells [2]; CXCL12 mRNA", "result": 0.8113, "unit": "fold"}, {"measurement": "Fold Change vs. Mock, CXCR4", "setting": "MDA-MB-231 cells [2]; CXCR4 mRNA", "result": 0.8084, "unit": "fold"}, {"measurement": "Fold Change vs. Mock, DENR", "setting": "MDA-MB-231 cells [2]; DENR mRNA", "result": 0.9816, "unit": "fold"}, {"measurement": "Fold Change vs. Mock, EPHB2", "setting": "MDA-MB-231 cells [2]; EPHB2 mRNA", "result": 0.6693, "unit": "fold"}, {"measurement": "Fold Change vs. Mock, ETV4", "setting": "MDA-MB-231 cells [2]; ETV4 mRNA", "result": 0.5418, "unit": "fold"}, {"measurement": "Fold Change vs. Mock, EWSR1", "setting": "MDA-MB-231 cells [2]; EWSR1 mRNA", "result": 0.9465, "unit": "fold"}, {"measurement": "Fold Change vs. Mock, FAT1", "setting": "MDA-MB-231 cells [2]; FAT1 mRNA", "result": 1.2752, "unit": "fold"}, {"measurement": "Fold Change vs. Mock, FGFR4", "setting": "MDA-MB-231 cells [2]; FGFR4 mRNA", "result": 0.5362, "unit": "fold"}, {"measurement": "Fold Change vs. Mock, FLT4", "setting": "MDA-MB-231 cells [2]; FLT4 mRNA", "result": 0.8113, "unit": "fold"}, {"measurement": "Fold Change vs. Mock, FN1", "setting": "MDA-MB-231 cells [2]; FN1 mRNA", "result": 1.1044, "unit": "fold"}, {"measurement": "Fold Change vs. Mock, FXYD5", "setting": "MDA-MB-231 cells [2]; FXYD5 mRNA", "result": 0.9400, "unit": "fold"}, {"measurement": "Fold Change vs. Mock, GAPDH", "setting": "MDA-MB-231 cells [2]; GAPDH mRNA", "result": 0.9335, "unit": "fold"}, {"measurement": "Fold Change vs. Mock, GNRH1", "setting": "MDA-MB-231 cells [2]; GNRH1 mRNA", "result": 0.9970, "unit": "fold"}, {"measurement": "Fold Change vs. Mock, HGF", "setting": "MDA-MB-231 cells [2]; HGF mRNA", "result": 0.8113, "unit": "fold"}, {"measurement": "Fold Change vs. Mock, HPRT1", "setting": "MDA-MB-231 cells [2]; HPRT1 mRNA", "result": 1.2796, "unit": "fold"}, {"measurement": "Fold Change vs. Mock, HPSE", "setting": "MDA-MB-231 cells [2]; HPSE mRNA", "result": 0.8620, "unit": "fold"}, {"measurement": "Fold Change vs. Mock, HRAS", "setting": "MDA-MB-231 cells [2]; HRAS mRNA", "result": 1.0075, "unit": "fold"}, {"measurement": "Fold Change vs. Mock, HTATIP2", "setting": "MDA-MB-231 cells [2]; HTATIP2 mRNA", "result": 0.7439, "unit": "fold"}, {"measurement": "Fold Change vs. Mock, IGF1", "setting": "MDA-MB-231 cells [2]; IGF1 mRNA", "result": 0.8635, "unit": "fold"}, {"measurement": "Fold Change vs. Mock, IL1B", "setting": "MDA-MB-231 cells [2]; IL1B mRNA", "result": 0.6266, "unit": "fold"}, {"measurement": "Fold Change vs. Mock, IL18", "setting": "MDA-MB-231 cells [2]; IL18 mRNA", "result": 0.7362, "unit": "fold"}, {"measurement": "Fold Change vs. Mock, ITGA7", "setting": "MDA-MB-231 cells [2]; ITGA7 mRNA", "result": "0.561 fold and 0.5609 fold"}, {"measurement": "ITGA7 fold change expressed as negative fold (down-regulation)", "setting": "MDA-MB-231 cells [2]; ITGA7 mRNA", "result": "−1.78", "unit": "fold"}, {"measurement": "Fold Change vs. Mock, ITGB3", "setting": "MDA-MB-231 cells [2]; ITGB3 mRNA", "result": 1.0198, "unit": "fold"}, {"measurement": "Fold Change vs. Mock, KISS1R", "setting": "MDA-MB-231 cells [2]; KISS1R mRNA", "result": 0.8113, "unit": "fold"}]}
